According to the supplement of paper PMC6757056:
± gives the standard deviation of the averaged measurements.

B1: library; a variant is named by its letters at N, in order (parent)
chain: GCUGUCACCGGUGCUUGGUACGUUAUAUUCAGCCGGUCUGAUGAGUCUNNNNNNAGACGAAACAGC

Experiments:
(6R,S)-folinic acid [1] = variants of: B1; experiment: FACS-Seq fitted mean relative fluorescence mCherry/BFP without ligand (log10 relative fluorescence); HEK293T overexpressing SLC46A1; higher = higher reporter protein expression; settings: without (6R,S)-folinic acid; ligand present: no
Procedure, shortened: (§1)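 Sorting into 6 bins by mCherry/BFP followed 48 h of incubation with or without ligand. The cells were enriched HEK293T libraries lentivirally bearing an mCherry reporter with the ribozyme switch and an EF1α-BFP marker, and bin genomic DNA was PCR-amplified, barcoded and sequenced on MiSeq. Fluorescence is the fitted normal mean of the bin counts. Means were fitted on log10(mCherry/BFP), scaled to five spiked-in control ribozymes.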

(6R,S)-folinic acid [2] = variants of: B1; experiment: normalized RNA/DNA level without ligand (relative to sTRSVctl = 100) (log10 (% of sTRSVctl)); HEK293T overexpressing SLC46A1; higher = less ribozyme self-cleavage, higher mRNA level; settings: without (6R,S)-folinic acid; ligand present: no
Procedure, shortened: (§2)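 HEK293T cells received ligand, where used, 1 h before being transfected with 4 µg per 6-well well of library plasmids encoding reporter-linked ribozyme switches. After 72 h, RNA was extracted with EDTA and sequenced. RNA level was derived from RNA reads per DNA read, normalized to a spiked-in non-cleaving sequence or the top sequences, then scaled and log-transformed. Values were ×100 then log10, the top set was 25 sequences, and the minimum was 100 DNA reads.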

(6R,S)-folinic acid [3] = variants of: B1; experiment: FACS-Seq fitted mean relative fluorescence mCherry/BFP with ligand (log10 relative fluorescence); HEK293T overexpressing SLC46A1; ligand concentration (+) FACS-Seq: 6 mM; higher = higher reporter protein expression; settings: with (6R,S)-folinic acid; ligand present: yes
Procedure, shortened: as §1

(6R,S)-folinic acid [4] = variants of: B1; experiment: normalized RNA/DNA level with ligand (relative to sTRSVctl = 100) (log10 (% of sTRSVctl)); HEK293T overexpressing SLC46A1; ligand concentration (+) RNA-Seq: 6 mM; higher = less ribozyme self-cleavage, higher mRNA level; settings: with (6R,S)-folinic acid; ligand present: yes
Procedure, shortened: as §2

Variant	FACS-Seq fitted mean (log10) ((6R,S)-folinic acid [1])	normalized RNA/DNA level without ligand (log10) ((6R,S)-folinic acid [2])	FACS-Seq fitted mean (log10) ((6R,S)-folinic acid [3])	normalized RNA/DNA level with ligand (log10) ((6R,S)-folinic acid [4])
GGAAUC	-0.317 ± 0.23	2.055 ± 0.0066	-0.244 ± 0.51	2.05 ± 0.023
GGAAUG	0.589 ± 0.011	1.973 ± 0.0085	0.668 ± 0.1	2.03 ± 0.029
UGACGC	0.28 ± 0.091	2.017 ± 0.0099	0.284 ± 0.026	2.033 ± 0.017
UGACGA	0.311 ± 0.052	1.9519 ± 0.0017	0.493 ± 0.015	2.04 ± 0.014
GGACAA	0.352 ± 0.14	1.98 ± 0.0036	0.748 ± 0.25	1.99 ± 0.02
GCUUAA	0.522 ± 0.21	1.9846 ± 0.00062	0.5605 ± 0.0027	2.01 ± 0.023
GCUUAC	0.583 ± 0.13	2.02 ± 0.026	0.554 ± 0.32	2.01 ± 0.052
UCUUAG	0.183 ± 0.18	1.86 ± 0.053	-0.141 ± 0.14	2.02 ± 0.019
CCUUAU	0.278 ± 0.013	2.023 ± 0.0064	0.394 ± 0.22	2.05 ± 0.022
GCGAAC	0.252 ± 0.064	1.951 ± 0.002	0.261 ± 0.15	2.04 ± 0.027
GCGAAA	0.397 ± 0.13	1.977 ± 0.0092	0.39 ± 0.054	2.019 ± 0.017
GCGAAU	0.583 ± 0.062	2.014 ± 0.0084	0.3524 ± 0.00074	2.047 ± 0.016
GCGAAG	0.477 ± 0.0095	1.947 ± 0.0035	0.576 ± 0.049	2.05 ± 0.0089
UCGAUG	0.26 ± 0.021	1.797 ± 0.015	0.486 ± 0.017	1.97 ± 0.039
UCGAUA	0.597 ± 0.085	1.987 ± 0.0049	0.69 ± 0.34	2.02 ± 0.026
ACUUAA	-0.0941 ± 0.16	1.974 ± 0.011	-0.044 ± 0.31	1.98 ± 0.033
ACUUAU	0.328 ± 0.084	1.991 ± 0.0041	0.329 ± 0.12	2.02 ± 0.031
ACUUAC	0.478 ± 0.045	2.009 ± 0.0089	0.5359 ± 0.00057	2.016 ± 0.014
